Experimental data reported in the Immune Epitope Database (IEDB).

Each sequence was assayed against HLA-B*27:05 (assay: IEDB peptide-MHC binding, purified MHC/competitive/radioactivity; ≥ and ≤ were set here for values at or beyond the usual limits of such assays). Conditions: source organism: unidentified.

**Q.** With AHKEIHQQL as the sequence, how does the IC50 read?
**A.** 83 nM

**Q.** How did the IC50 turn out when ARCGGALLAL was run?
**A.** 5.3 nM

**Q.** For ARVKEVEEMCKG, which IC50 is on record?
**A.** 3170 nM

**Q.** With ERAGPLSGKKF as the sequence, how does the IC50 read?
**A.** 16 nM

**Q.** GKLCQHIIKR was tested. Which IC50 did it give?
**A.** 5760 nM

**Q.** Which IC50 does the source give for GRFEVGKKICLG here?
**A.** 32 nM

**Q.** With GRNKLLQSW as the sequence, how does the IC50 read?
**A.** 10000 nM

**Q.** How did the IC50 turn out when GRVCSNRHGLIR was run?
**A.** 657 nM

**Q.** Which IC50 does the source give for LKRDKLFEK here?
**A.** 10000 nM

**Q.** Which IC50 does the source give for PKLLGPLSL here?
**A.** 27600 nM

**Q.** With PRGSGGIGL as the sequence, how does the IC50 read?
**A.** 336 nM

**Q.** PRPRGGSDL was tested. Which IC50 did it give?
**A.** 466 nM

**Q.** For RGLASPPPVR, which IC50 is on record?
**A.** 833 nM

**Q.** How did the IC50 turn out when RRNDKQLCIG was run?
**A.** 108 nM

**Q.** For RRVSQGLLGK, which IC50 is on record?
**A.** 1.6 nM

**Q.** For RRVYLEGRCVG, which IC50 is on record?
**A.** 24 nM

**Q.** RRYNGGVGRCQ was tested. Which IC50 did it give?
**A.** 16 nM

**Q.** TRLVLDPVR was tested. Which IC50 did it give?
**A.** 241 nM

**Q.** How did the IC50 turn out when TRSTGLLGVK was run?
**A.** 1520 nM

**Q.** VRSPGATASSL was tested. Which IC50 did it give?
**A.** 986 nM

What follows are sequences tested against HLA-A*01:01 in the same assay as above. Conditions: source organism: unidentified.

**Q.** For ADTDSPLRY, which IC50 is on record?
**A.** 32 nM

**Q.** For DKDGCMVEQY, which IC50 is on record?
**A.** 10000 nM

**Q.** How did the IC50 turn out when EKPHSEAGTAF was run?
**A.** 10000 nM

**Q.** With ETESQQIRY as the sequence, how does the IC50 read?
**A.** 30 nM

**Q.** GCLDTAQRNLY was tested. Which IC50 did it give?
**A.** 201 nM

**Q.** With GLELSGCIVY as the sequence, how does the IC50 read?
**A.** 5130 nM

**Q.** For LVIDNGSGMCKG, which IC50 is on record?
**A.** 26600 nM

**Q.** Which IC50 does the source give for PHSPALQPI here?
**A.** 1710 nM

The sequences below were run against HLA-B*07:02 in the same assay as above. Conditions: source organism: unidentified.

**Q.** How did the IC50 turn out when APRRPTQGTVTF was run?
**A.** 4.3 nM

**Q.** For FPRVSTPLA, which IC50 is on record?
**A.** 98 nM

**Q.** For GVWEEVGCAKG, which IC50 is on record?
**A.** 266 nM

**Q.** Which IC50 does the source give for LGPRAAAAGAL here?
**A.** 33 nM

**Q.** LPPPARPPI was tested. Which IC50 did it give?
**A.** 111 nM

**Q.** For LPRGGSVLVTCG, which IC50 is on record?
**A.** 554 nM

**Q.** NPRGARVIAL was tested. Which IC50 did it give?
**A.** 0.96 nM

**Q.** Which IC50 does the source give for PGREAVSKL here?
**A.** 11500 nM

**Q.** How did the IC50 turn out when PGRGARRLLALV was run?
**A.** 713 nM

**Q.** How did the IC50 turn out when PKASSGSFSL was run?
**A.** 11300 nM

**Q.** With PLRDARVSDL as the sequence, how does the IC50 read?
**A.** 8490 nM

**Q.** For PSTLNVGTL, which IC50 is on record?
**A.** 10000 nM

**Q.** Which IC50 does the source give for PVEKNTVEL here?
**A.** 9210 nM

**Q.** How did the IC50 turn out when PVRPAAAAATAL was run?
**A.** 3230 nM

**Q.** RPRWGAAAS was tested. Which IC50 did it give?
**A.** 3.6 nM

**Q.** For SPLAASKECAV, which IC50 is on record?
**A.** 367 nM

**Q.** Which IC50 does the source give for VPAQSRPCVG here?
**A.** 4590 nM

**Q.** WSVMDQDSL was tested. Which IC50 did it give?
**A.** 10000 nM

These sequences were tested against HLA-A*03:01 in the same assay as above. Conditions: source organism: unidentified.

**Q.** For ALSPVLIPR, which IC50 is on record?
**A.** 4.8 nM

**Q.** Which IC50 does the source give for AVYEGHVSCVKG here?
**A.** 12300 nM

**Q.** How did the IC50 turn out when GATCELPLQK was run?
**A.** 13100 nM

**Q.** How did the IC50 turn out when GFQNALLVR was run?
**A.** 8480 nM

**Q.** For GITCPQVLIQK, which IC50 is on record?
**A.** 819 nM

**Q.** With GSTCIYGGAPK as the sequence, how does the IC50 read?
**A.** 666 nM

**Q.** For GVVCPVSDILYK, which IC50 is on record?
**A.** 202 nM

**Q.** Which IC50 does the source give for IISIVTGLK here?
**A.** 14 nM

**Q.** With KISFPIIAK as the sequence, how does the IC50 read?
**A.** 0.78 nM

**Q.** How did the IC50 turn out when LDAGLKKQFYK was run?
**A.** 960 nM

**Q.** For LNDRGGSVIK, which IC50 is on record?
**A.** 10000 nM

**Q.** Which IC50 does the source give for NTCQDAAIVGYK here?
**A.** 1310 nM

**Q.** For PSVGPVLGR, which IC50 is on record?
**A.** 2180 nM

**Q.** How did the IC50 turn out when QDKVKTLTGK was run?
**A.** 10000 nM

**Q.** Which IC50 does the source give for QFLEENTNILK here?
**A.** 18600 nM

**Q.** Which IC50 does the source give for QTALVEIIK here?
**A.** 2720 nM

**Q.** With RAAAPPLPR as the sequence, how does the IC50 read?
**A.** 175 nM

**Q.** Which IC50 does the source give for RAAPPPPPR here?
**A.** 56 nM

**Q.** With RAVPGPPAR as the sequence, how does the IC50 read?
**A.** 372 nM

**Q.** With RIKFSDDRVCKG as the sequence, how does the IC50 read?
**A.** 25700 nM

**Q.** Which IC50 does the source give for RLADKSVLVCKG here?
**A.** 343 nM

**Q.** How did the IC50 turn out when RSLTGILGK was run?
**A.** 238 nM

**Q.** How did the IC50 turn out when RTGVPPTIR was run?
**A.** 2590 nM

**Q.** How did the IC50 turn out when RVFPSNVICKG was run?
**A.** 1830 nM

**Q.** For SLFSTSSKL, which IC50 is on record?
**A.** 8740 nM

**Q.** For STLTDSLVCGK, which IC50 is on record?
**A.** 31 nM

**Q.** For SVRELNFTK, which IC50 is on record?
**A.** 119 nM
